Data: the RNAGym collection of RNA variant scans (doi:10.1073/pnas.2313332121)

B1: TPR t1 (parent)
chain: GACCAAUCUGCCCUCAGAGCUCGAGAACAUCUUCGGAUGCAGAGGAGGCAGGCUUCGGUGGCGCGAUAGCGCCAACGUCCUCAACCUCCAAUGCAUCCCACCACAUGAUGAUGCCUGAAGAGCCUUGGUUUUUUG

Variants of: B1
Experiment: polymerase ribozyme fitness, log enrichment relative to wild type (log ratio); higher = more active; in vitro selection for triplet polymerase activity
Procedure, shortened: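 A heterodimeric triplet polymerase ribozyme had each of its subunits mutagenized by PCR into a library, which was transcribed. One round of in vitro selection, done in triplicate, annealed each library with a biotinylated primer, its partner subunit and triplets, then incubated it frozen at −7 °C before gel excision of extended constructs, streptavidin-bead capture and RT-PCR. Fitness is the logarithm of genotype enrichment relative to wild-type enrichment, based on Illumina sequencing of inputs and outputs and inverse-variance-weighted replicate averages. A base-2 logarithm is used, and genotypes were kept only with ≥10 input reads and ≥1 read per output.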
In the case of C13U G25C C62G C82A C86A C102U U109C, the “polymerase ribozyme fitness (log ratio)” value is reported as -7.42. For C4G C124A, the “polymerase ribozyme fitness (log ratio)” value was 0.669. For C20G U30G C114G G117U C124G, the “polymerase ribozyme fitness (log ratio)” value was -7.61. For A27G U55A, the “polymerase ribozyme fitness (log ratio)” value was -2.6. In the case of C56U U59G C114G, the “polymerase ribozyme fitness (log ratio)” value is reported as -1.96. With G47U C53U A111G the “polymerase ribozyme fitness (log ratio)” value was -1.54. With A2U C12G the “polymerase ribozyme fitness (log ratio)” value was -1.36. In the case of G60U G63U G113U G117U, the “polymerase ribozyme fitness (log ratio)” value is reported as -5.19. For A27U C40U C72G A100C, the “polymerase ribozyme fitness (log ratio)” value was -7.09. For U7A C12U A43U C49A C114G, the “polymerase ribozyme fitness (log ratio)” value was -1.69. With U7A G60U U112A the “polymerase ribozyme fitness (log ratio)” value was 1.29. With C73A A74G the “polymerase ribozyme fitness (log ratio)” value was -0.555. With U9G G42U G45C U92G U129A the “polymerase ribozyme fitness (log ratio)” value was -6.64. With A95C G128C the “polymerase ribozyme fitness (log ratio)” value was -2.12. In the case of G25C G61A, the “polymerase ribozyme fitness (log ratio)” value is reported as -4.35. For G39C C56A, the “polymerase ribozyme fitness (log ratio)” value was -0.765. With C11G C12A G63A the “polymerase ribozyme fitness (log ratio)” value was -0.541. In the case of C34A A46G U54G, the “polymerase ribozyme fitness (log ratio)” value is reported as -2.69. For C28U A43G G113A, the “polymerase ribozyme fitness (log ratio)” value was -3.91. In the case of C8U G44U G52A G63C A84U C85A, the “polymerase ribozyme fitness (log ratio)” value is reported as -6.83. For C20G C56U C72U, the “polymerase ribozyme fitness (log ratio)” value was -3.6. For C104U A118U U131A, the “polymerase ribozyme fitness (log ratio)” value was 0.243. With G42A A46U C76U U96G the “polymerase ribozyme fitness (log ratio)” value was -4.78. For C64U C73U C82U, the “polymerase ribozyme fitness (log ratio)” value was -0.57. With C79U C94G A100C G117C the “polymerase ribozyme fitness (log ratio)” value was -6.32. In the case of U9A A108U C123G, the “polymerase ribozyme fitness (log ratio)” value is reported as -4.11. With C94G U116C A118C the “polymerase ribozyme fitness (log ratio)” value was -3.89. In the case of G42A G44U C73G U112A G122A, the “polymerase ribozyme fitness (log ratio)” value is reported as -3.21. In the case of A5U C8G C15A A41U G48A C49U G113A U129C, the “polymerase ribozyme fitness (log ratio)” value is reported as -5.44. For A75U C104U U106A, the “polymerase ribozyme fitness (log ratio)” value was -0.439. With C8A G10U C73A the “polymerase ribozyme fitness (log ratio)” value was -0.361. For C11G C123G, the “polymerase ribozyme fitness (log ratio)” value was 0.989. With G47C A95G U133A the “polymerase ribozyme fitness (log ratio)” value was -2.16. With C11A U54G U81A the “polymerase ribozyme fitness (log ratio)” value was -2.11. For G69U C76G C85G G120U, the “polymerase ribozyme fitness (log ratio)” value was -2.87. With C56U C82A G120A G128A the “polymerase ribozyme fitness (log ratio)” value was -0.705. With A26G C62U C80G G110C the “polymerase ribozyme fitness (log ratio)” value was -7.8. In the case of A6C C56G, the “polymerase ribozyme fitness (log ratio)” value is reported as -0.703. In the case of U54A G113U C114G A121C, the “polymerase ribozyme fitness (log ratio)” value is reported as -2.43. With C12A C62G U133G the “polymerase ribozyme fitness (log ratio)” value was -1.75. In the case of C62U A95C G113U G135A, the “polymerase ribozyme fitness (log ratio)” value is reported as -3.24. With A27U G44U G69C C89U the “polymerase ribozyme fitness (log ratio)” value was -6.05. For A46U G122U, the “polymerase ribozyme fitness (log ratio)” value was -0.865. For G127U U130G, the “polymerase ribozyme fitness (log ratio)” value was -0.841. With G110A G113U the “polymerase ribozyme fitness (log ratio)” value was -5.23. With A66G U87A C99U A118U the “polymerase ribozyme fitness (log ratio)” value was -4.99. In the case of G61C A100U A111G G113A, the “polymerase ribozyme fitness (log ratio)” value is reported as -4.64. For U7G G58C U106A G128A, the “polymerase ribozyme fitness (log ratio)” value was -0.568. With C88A U92A G113A the “polymerase ribozyme fitness (log ratio)” value was -3.73. For C8G G52U G60A U96G, the “polymerase ribozyme fitness (log ratio)” value was -0.693. In the case of G19A A43U C53U C56A, the “polymerase ribozyme fitness (log ratio)” value is reported as -3.04. In the case of U54C U59C G61U U125A, the “polymerase ribozyme fitness (log ratio)” value is reported as -6.69. In the case of C101U G122A, the “polymerase ribozyme fitness (log ratio)” value is reported as -1.06. With C28G G77U the “polymerase ribozyme fitness (log ratio)” value was -3.74. For A5C C62U C72G C101G U106G U129C, the “polymerase ribozyme fitness (log ratio)” value was -5.17. For C11G C13U C104A A111U, the “polymerase ribozyme fitness (log ratio)” value was -3.99. For A27U C73U A75G, the “polymerase ribozyme fitness (log ratio)” value was -3.03. With C12A A26G A121C the “polymerase ribozyme fitness (log ratio)” value was -1.17. For G61U C88U, the “polymerase ribozyme fitness (log ratio)” value was -0.259. In the case of C13U U14G A16U G93U G120C, the “polymerase ribozyme fitness (log ratio)” value is reported as -3.43. With U32C G69C C80U C101U C102U the “polymerase ribozyme fitness (log ratio)” value was -5.78. In the case of U38G C102U, the “polymerase ribozyme fitness (log ratio)” value is reported as -3.84. In the case of A41U C80U C123A, the “polymerase ribozyme fitness (log ratio)” value is reported as -1.59. In the case of C4U C13U G19U A95G, the “polymerase ribozyme fitness (log ratio)” value is reported as -2.99. For G63A C94A, the “polymerase ribozyme fitness (log ratio)” value was -0.982. For U7G A43G G47U G61A U96A, the “polymerase ribozyme fitness (log ratio)” value was -2.6. In the case of G47A C85A, the “polymerase ribozyme fitness (log ratio)” value is reported as -2.48. With U81G the “polymerase ribozyme fitness (log ratio)” value was -3.8. For C73A C104A U116G C124A, the “polymerase ribozyme fitness (log ratio)” value was -1.19. With G58U C86A G117U U130G the “polymerase ribozyme fitness (log ratio)” value was -3.79. For G44U A46U A111C, the “polymerase ribozyme fitness (log ratio)” value was -3.04. With G110U G135U the “polymerase ribozyme fitness (log ratio)” value was -3.12. In the case of G17C A41U G51U C64U C104U G120A, the “polymerase ribozyme fitness (log ratio)” value is reported as -6.91. With A29G C76U G77C the “polymerase ribozyme fitness (log ratio)” value was -2.58. For U7A G52U G60A G61C C62U, the “polymerase ribozyme fitness (log ratio)” value was -6.92. In the case of U9C A16U G52U, the “polymerase ribozyme fitness (log ratio)” value is reported as -0.423. With C22G A43U U106A C115A the “polymerase ribozyme fitness (log ratio)” value was -1.37. In the case of C40G C49U G69A U78A, the “polymerase ribozyme fitness (log ratio)” value is reported as -4.96. For A2C C13G G36A G63A, the “polymerase ribozyme fitness (log ratio)” value was -5.73. With G45C U132C the “polymerase ribozyme fitness (log ratio)” value was -1.51. For G51C G60C, the “polymerase ribozyme fitness (log ratio)” value was -4.64. With C49G A83G C88A C102U G120C the “polymerase ribozyme fitness (log ratio)” value was -5.33. In the case of C8A C28U G48C G57U G127C, the “polymerase ribozyme fitness (log ratio)” value is reported as -3.86. With C56U U81G C82A the “polymerase ribozyme fitness (log ratio)” value was -1.57.
